Test results from patent publication US20200040057A1.

Legend:
HLA-B*07 (human) [1] = assay: UV peptide exchange ELISA; +++ = yield >50
HLA-B*07 (human) [2] = assay: UV peptide exchange ELISA; ++++ = yield >75%

## VPRPTSTVGL
HLA-B*07 (human) [1]
  peptide exchange yield: 50 to 75%

## LPRGLSPARQL
HLA-B*07 (human) [1]
  peptide exchange yield: 50 to 75%

## LPRIPFSTF
HLA-B*07 (human) [2]
  peptide exchange yield: > 75%

## VPRPIFSQLYL
HLA-B*07 (human) [2]
  peptide exchange yield: > 75%

## FPNEVSVVL
HLA-B*07 (human) [2]
  peptide exchange yield: > 75%
